{"source": "the nanobody polyreactivity screen of Harvey et al. (2022)"}
{"assay": "yeast display, Sf9 membrane polyspecificity reagent, FACS + sequencing; frameworks hold sequencing errors", "outline": "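Polyreactivity labels are assigned by the sorting gate from which each nanobody was recovered. The gates were low and high (top ~1%), set on anti-HA fluorescence for expression and streptavidin fluorescence for reagent binding. Before sorting, galactose-induced (36–48 hours) yeast display cells were stained for 1 hour at 4 °C with 10% biotinylated, detergent-solubilized Sf9 membrane reagent.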"}
{"sequence": "QVQHVESAAGLVQAGCSLRLSGAASGRIFRGYAMGWSRPAHGNEWELVAGITWGGGSTYYADSVKGRFTISRDKAKNTVYLQMNSLKPEDTAVYYCNAVRPRQWWTHFGYWGQGTQVTVSS", "polyreactivity (PSR sort gate)": "high polyreactivity"}
{"sequence": "QVQHVESAAGLVQAGGSLRLSCAASGRIFYATVMGWYRQAHGKVREFVAAIRWSGSTYYADSVKGRFTISRDNAKNTVYLQMNSLKRVDTAVYYCADEGSRWYYFFYVGGGYWGQGTQVTVSS", "polyreactivity (PSR sort gate)": "low polyreactivity"}
{"sequence": "QVQHVESAGALVQAGGSLRLSCAASRRTFYRYPMGWYRQAPGKERELVAAISSNGGSTYYADSVKGRFTISRDNGKNTVYLQMNSLKPEDTAVYYCYYYNSRLFDYWGQGTQVTVSS", "polyreactivity (PSR sort gate)": "high polyreactivity"}
{"sequence": "QVQHVESAGGLVQAGGSLRLSCAASGRTFSRYAMGWYRQAPGKERELVATITRGGSTNYADSVKGRFTISRDNAKNRVYLQMNSQKPEDTSVYYFIAGCFRYQGTLNHFYYWGQGTQVTVSS", "polyreactivity (PSR sort gate)": "low polyreactivity"}
{"sequence": "QVQHVESARGLVPAGGSLRLSCAASGFTVIRYAMGRYRQAPGKERELVAAIRGTGTSTYYADSVKGRFTISRDIAKNTVYLQLNSLKPEDTAVYYCNKVAGRSPYTRYDYWGQGTQVTVSS", "polyreactivity (PSR sort gate)": "low polyreactivity"}
{"sequence": "QVQHVESGAGIVQAGGSLRLSCAASGSTFKRYAMGWYRQAPGKERELVAAITWRGGSTYYADSVKGRFTISRDNAKNTVYLLMNSLKPDDTAVYYCASDYVYRYDYWGQGTQVTVSS", "polyreactivity (PSR sort gate)": "high polyreactivity"}
{"sequence": "QVQHVESGAGLVQAGGSLLLSCAASGRIFQKYPMGWYRQSPGKERELVAAISRGGSTYYADSVKGRFTISRDNAKNTVYLQMISLNPEDTAVYFCASTSYRRTGYNYWGQGTQVTVSS", "polyreactivity (PSR sort gate)": "high polyreactivity"}
{"sequence": "QVQHVESGAGLVQAGGSLRLSCAASGNTFTWYTRGWSRQAPGKERELVAVITSDGATYYADSVKGRFTISRDNAKNTVYLQMNSLKPEDTAVYYCNALSAEWYPEEDYWGQGTQVTVSS", "polyreactivity (PSR sort gate)": "low polyreactivity"}
{"sequence": "QVQHVESGAGLVQAGGSLRLSCAASGSTFFRANAMGLDRQEPGKERELVAAITGSGGRTYYADSVKGRFTISRDNAKNTVYLQMNSLKPEDTAVYYCATHGVSRPYDYWGPGTQVTVSS", "polyreactivity (PSR sort gate)": "high polyreactivity"}
{"sequence": "QVQHVESGGALVQAGGSLRLSCAASGFTFTRNTMGWYRQAPGKERELVAAITRGGSTNYADSVKGRFTISRDNAKNTVYLQMNSLKPEDTAVYYCNKGRNVVLVRTADDYWGQGTQVTVSS", "polyreactivity (PSR sort gate)": "low polyreactivity"}
{"sequence": "QVQHVESGGGIVQAGGSLRLSCAASGLTFVYYAMGWYRQAPGTERELVAAISSGGRTYYADSVKGRFTISRDNAKKTVYLQMNSLKPDDTAVYYCAAYGGTHYTYRYDYWGQGTQVTVSS", "polyreactivity (PSR sort gate)": "high polyreactivity"}
{"sequence": "QVQHVESGGGIVQAGGSLRLSCAASGSIFDRNAMGWYRPAPGQERELVASISWDGGNTYYADSVKGRFTISRDNSTNTVYLQMNSLKPEDTAVYYCAVDLYIWYDGYEYYYWGQGTQVTVSS", "polyreactivity (PSR sort gate)": "high polyreactivity"}
{"sequence": "QVQHVESGGGLDQAGGSLPLSCASSGSTFAYYAMGWYRQAPGKERELVASITWSGGITYYADSVKGRFTISRDNAKNTVYLQMNSLKPEETAVYYCNVVPYYGYYYWGQGSQVTVSS", "polyreactivity (PSR sort gate)": "low polyreactivity"}
{"sequence": "QVQHVESGGGLFQAGGSLRLSCAASGTTFRYYAMGWYRQAPVKERELVAYITTSGGTYYADSVKGRFTISRDNAKNTVYLQMNSLKPEDTAVDYCAARRQDYTYYRIYNFDYWGQGTQVTVSS", "polyreactivity (PSR sort gate)": "high polyreactivity"}
{"sequence": "QVQHVESGGGLGQAGGSLRLSCAASGSTFRSYAMGWYRQAPGKERELVAVISSGDSTYYADSLKGSFKISRDNAKNTVYLQMNSLKPDDTAVYYCAADSYFLVRWYGYWGQGTQVTVSS", "polyreactivity (PSR sort gate)": "low polyreactivity"}
{"sequence": "QVQHVESGGGLGQAVGSLRLSCAASGFTFARNAMGWDRQAPGQERELVAAISSSGAGTYYADSVKGRFTISRDNSKNTVYLQMNSLKPEDTAVYYCAAYSWKGYDYWGQGTQVTVSS", "polyreactivity (PSR sort gate)": "high polyreactivity"}
{"sequence": "QVQHVESGGGLLQAGGSLRLSCPASGRTFTVYALGWYRQAPGKDRELVAAFSRSGGRTYYADSVKGRFTISRDNAKNTVYLQRNSLKPEDTAVYYCAADDPYRTNDFDYWGQGTQVTVSS", "polyreactivity (PSR sort gate)": "high polyreactivity"}
{"sequence": "QVQHVESGGGLVQAGCSLRLSCAASGRIFRLYAMGWYRQARGKERELVAAISSRGGDTYADSVKGRFTISRDNAKNTVYLQMNSLKPEDTAVYYCNAVIYYPYKYGVWYYEYDYWGQGTQVTVSS", "polyreactivity (PSR sort gate)": "low polyreactivity"}
{"sequence": "QVQHVESGGGLVQAGGCLRVSCAASGRTFIYYAMGGYRPAPGKERELVAAITNRGGSTYYADSVKGRFTISRDNAQNTVYLLMNSLNPEDTAVYYCAARGKYPSASAYTYSYGYWGQGTQVTVSS", "polyreactivity (PSR sort gate)": "high polyreactivity"}
{"sequence": "QVQHVESGGGLVQAGGRLRLRCAASGSIFGTYAMGWYRQAPGKERELVARISGGGSTYYADSVKGRFTISRDNAKNTVYLQMNSLKPEDTAVYYCNVRKWAYWSHAIIYNYWGQGTQVTVSS", "polyreactivity (PSR sort gate)": "high polyreactivity"}
{"sequence": "QVQHVESGGGLVQAGGSHPLSCAASGRIFQYNALGWYRKATGKERELLAAISLSGVRTYYADSVKGRFTISRDNAKNTVYLQMNSLKPEDTAVYYCAAVRFDRARGSPYPDRVGVYSWGQGTQVTVSS", "polyreactivity (PSR sort gate)": "high polyreactivity"}
{"sequence": "QVQHVESGGGLVQAGGSLPLSCAASGFIFYNYAQRCYTQPPGKERELVAAISSGDDTTYADSVKGRFTISRDNAKNTVYLQMNSLKPDDTAVYYCNTVRSVKQQGPYGYCGQGTQVTVSS", "polyreactivity (PSR sort gate)": "low polyreactivity"}
{"sequence": "QVQHVESGGGLVQAGGSLRISCAASGFIFGPYAMGWSRKAPGKERELVAAISGRDGSTYYADSVKGRFTISRDNAKNSVYLHMNSLKPEDTAVYYCAAEVWTALYYSYYGYRYYWGQGTQVTLSS", "polyreactivity (PSR sort gate)": "high polyreactivity"}
{"sequence": "QVQHVESGGGLVQAGGSLRISCAASGSIFYYNAMGWYRQAPGKERELVAAISWGDGITYYADSVKGRFTISRDNAKNTVYLQMNSLKPEDTAVYYCAVDYYYLAYEYWGQGTQVTVSS", "polyreactivity (PSR sort gate)": "high polyreactivity"}
{"sequence": "QVQHVESGGGLVQAGGSLRISCAASGSTFPRYGKGRYRQAPGKERELVAAISSGGGRTYYADSVKGRFTISRDNAKNTVYVQMNSLKPEDTAVYYCNKRPSHWRHYIMDYWGQGTQVTVSS", "polyreactivity (PSR sort gate)": "high polyreactivity"}
{"sequence": "QVQHVESGGGLVQAGGSLRLSCAASAIIFGDYAMGWYRQAPGKETELVAAINLDGTSTYYADSVKGRFTISRDIAKHSVYLQINSLKTEDTAGFYCAAVPDKYCCRVRRYLFEHNYWGQGTQVTVSS", "polyreactivity (PSR sort gate)": "low polyreactivity"}
{"sequence": "QVQHVESGGGLVQAGGSLRLSCAASGFIFASYAMGWSRQPPGKERELVAAISWRGGSTYYADSVKGRFTISRDNAKNTLYLQMNSLKPVDTAVYYCNAYVYVCTGRGYDTLDYWGQGTQVTVSS", "polyreactivity (PSR sort gate)": "low polyreactivity"}
{"sequence": "QVQHVESGGGLVQAGGSLRLSCAASGFIFGRYTMGWYRQAPGKERELVAAISRGGITNYADSVKGRFTISRDNAKNTVYLQMNSLKPEDTAVYYCNAVGVRPGFKGFDYWGQGTQVTVSS", "polyreactivity (PSR sort gate)": "high polyreactivity"}
{"sequence": "QVQHVESGGGLVQAGGSLRLSCAASGFIFPYYDMGWYRQAPGKEREFVAAITKSGGRTYYADSVKGRFTISRDNAKNPVYLQMNSLKPEDTAVYYCAAEPDTYWYTYDYWGQGTQVTVSS", "polyreactivity (PSR sort gate)": "low polyreactivity"}
{"sequence": "QVQHVESGGGLVQAGGSLRLSCAASGFIFWYYAMGWYRKAPGKERELVAAISSRGGSTYYADSVKGRFTISRDNAKNTVYLQLNSLKPEDTAGYYCATPSKALPPHGRAILDYWGQGTQVTVSS", "polyreactivity (PSR sort gate)": "high polyreactivity"}
{"sequence": "QVQHVESGGGLVQAGGSLRLSCAASGFILDTYGMGWYRQAPGKERELVAAISQSDVSTYYADSVKGRFTISRDNAKNTVDLQMNSLKPEDTAVYDCAADRGGLRWFWQVLYDYWGQGTQVTVSS", "polyreactivity (PSR sort gate)": "low polyreactivity"}
{"sequence": "QVQHVESGGGLVQAGGSLRLSCAASGFILPWYVMGWYRQAPGKERELVAAISGTGGSTYYADSVKGRFTISRDNAKNTVYLQMNSLKPEDTAVYYCAAGAFYAGYYWEFYYWGQGTQVTVSS", "polyreactivity (PSR sort gate)": "high polyreactivity"}
{"sequence": "QVQHVESGGGLVQAGGSLRLSCAASGFTFYRYTMGWYRQAPGKERELVAAISRGGRTYYADSVKGRFTISRDNAKNTVYLQMNSLKPEDTAVYYCAARTWIARRGRYNYWGQGTQVTVSS", "polyreactivity (PSR sort gate)": "high polyreactivity"}
{"sequence": "QVQHVESGGGLVQAGGSLRLSCAASGFTSWKYAMGWYRQAPGKERELVAAISQSGGRTYADSVKGRFTISRDNAKNTVYLQMNSLKPEDTAVYYCAARYPRRSQKYQYWGQGTQVTVSS", "polyreactivity (PSR sort gate)": "high polyreactivity"}
{"sequence": "QVQHVESGGGLVQAGGSLRLSCAASGFTYRRYAMGWYRQSPGKERELVAAISYRGGTYYADSVKGRFTISRDKAKNTLYLQMTSLIPEDTAVYYCNARYRGKYSSYGYWGQGTQVTVSS", "polyreactivity (PSR sort gate)": "high polyreactivity"}
{"sequence": "QVQHVESGGGLVQAGGSLRLSCAASGGIFHGYAMGWYRQAPGKERELVAAISRGGSTNYADSVKGRFTISRDNAKNTVYLQMNSLKPQDTAVYYCAARTRWFKGYDYWGQGTQVTVSS", "polyreactivity (PSR sort gate)": "high polyreactivity"}
{"sequence": "QVQHVESGGGLVQAGGSLRLSCAASGGTFSYNTMGWSRQAPGKERELVAVITFSGGSTYYADSVKGRFTISRDNAKNTVYLQMNSLKPEDTAVYYCNARSYPRWLRYDYWGQGTQVTVSS", "polyreactivity (PSR sort gate)": "low polyreactivity"}
{"sequence": "QVQHVESGGGLVQAGGSLRLSCAASGIIFHSYAMGWYRQAPGKERELVAAISKNVVSTYYADSVKGRFTISRDNAKNTVYLQMNSLKPEDTAVYYCATLKPYRARQRDYWGQGTQVTVSS", "polyreactivity (PSR sort gate)": "high polyreactivity"}
{"sequence": "QVQHVESGGGLVQAGGSLRLSCAASGITFFFNAIGWYRQATGKQRQLVAAITSRGGRTYYADSVKGRFTISRDNAKYTVYLQMNSLKPEDTAVYYCAATKKTGYYRYYYWGQGTQVTVSS", "polyreactivity (PSR sort gate)": "high polyreactivity"}
{"sequence": "QVQHVESGGGLVQAGGSLRLSCAASGITFGDNDMGWYRQAPGKERELVASISSGGSTTYADSVKGRFTISRDNAKNTVYLQMNSLKPEDTAVYYCNADYGSSVEYNYWGQGTKVTVSS", "polyreactivity (PSR sort gate)": "low polyreactivity"}
{"sequence": "QVQHVESGGGLVQAGGSLRLSCAASGLIFSWYAKGWYRQAPGKERELDASITIGGNTNYAYSVKGRFTISRDNAKNTVYLQMNSLKPEDTAVYYCDAQTFWYGYGGGDYWGQGTQVTVSS", "polyreactivity (PSR sort gate)": "low polyreactivity"}
{"sequence": "QVQHVESGGGLVQAGGSLRLSCAASGLIFTKNAMGWCRQARGKEWELVAAISRGGGTPYYADSVKGRFTISRDHAKNTVYLQMNSLKPEDTAVYYCAAESYLQYPGAGDSWGQGTQVTVSS", "polyreactivity (PSR sort gate)": "high polyreactivity"}
{"sequence": "QVQHVESGGGLVQAGGSLRLSCAASGLTFAGYTMGWYRQAPGKERELVAAITRGGGRTYYADSVKGRFTISRDNAKNTVYLQMNSLKPEDTAVYYCATVSQYRGYYWGQGTQVTVSS", "polyreactivity (PSR sort gate)": "high polyreactivity"}
